Patent US20220332804A1 (CSL INNOVATION, published 2022)
Numbering of substitutions follows the chain as printed.

Assays:
Experiment in all cases: SPR, KD relative to WT C2;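 also: biacore SPR at 37 °C, anti-C2 mAbs captured on anti-human IgG chips with alanine or serine point mutants of C2 as analyte, KD from 1:1 fit compared with wild-type C2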
human C2 S473A = target: T1, human C2 S473A (human, UniProt P06681 21-752)
T1 sequence: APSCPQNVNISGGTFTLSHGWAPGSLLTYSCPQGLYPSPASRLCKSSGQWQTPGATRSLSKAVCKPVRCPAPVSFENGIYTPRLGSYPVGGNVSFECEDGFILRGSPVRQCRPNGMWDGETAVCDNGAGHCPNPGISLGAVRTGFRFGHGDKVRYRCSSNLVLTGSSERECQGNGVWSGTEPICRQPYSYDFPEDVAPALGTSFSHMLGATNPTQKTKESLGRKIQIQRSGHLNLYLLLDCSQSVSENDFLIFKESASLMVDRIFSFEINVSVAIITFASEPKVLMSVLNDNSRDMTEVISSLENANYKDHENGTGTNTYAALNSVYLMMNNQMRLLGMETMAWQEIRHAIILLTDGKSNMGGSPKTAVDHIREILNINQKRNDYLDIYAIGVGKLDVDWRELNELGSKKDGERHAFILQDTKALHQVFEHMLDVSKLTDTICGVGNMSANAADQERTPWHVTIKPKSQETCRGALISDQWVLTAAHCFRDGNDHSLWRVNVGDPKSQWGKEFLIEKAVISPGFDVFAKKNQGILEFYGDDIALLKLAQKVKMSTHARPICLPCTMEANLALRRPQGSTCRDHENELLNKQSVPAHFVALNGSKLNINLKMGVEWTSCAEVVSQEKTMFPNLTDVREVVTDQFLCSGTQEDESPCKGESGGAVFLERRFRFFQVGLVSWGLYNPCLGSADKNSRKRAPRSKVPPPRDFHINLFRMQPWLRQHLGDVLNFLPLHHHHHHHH

human C2 D282A = target: T2, human C2 D282A (human, UniProt P06681 21-752)
T2 sequence: T1 sequence with D262A, A453S

human C2 K415A = target: T3, human C2 K415A (human, UniProt P06681 21-752)
T3 sequence: T1 sequence with K395A, A453S

human C2 I272A = target: T4, human C2 I272A (human, UniProt P06681 21-752)
T4 sequence: T1 sequence with I252A, A453S

B1: RF16-242 (antibody, human IgG4 S228P, lambda, V domains shown)
VH: EVQLLQSGAEVKKPGESLKISCKGSGYSFTSYWIGWVRQMPGKGLEWMGIIYPGDSDTRYSPSFQGQVTISADKSISTAYLQWSSLKASDTAMYYCARRGHYGDYFDYWGQGTLVTVSS
VL: SYELTQPPSVSVSPGQTARITCSGDALPKKYAYWYHQKSGQAPVLVIYEDRRRPSEIPERFSGSSSGTMATLTITGAQVEDEGVYFCYSRDRAGNQRVFGGGTQLTVLG
notes: pH-dependent anti-C2 antibody from a phage display library
**Q.** Which Fold diff (human C2 S473A) does the source give for B1 here?
**A.** The Fold diff was 2 fold.

**Q.** And the Fold diff (human C2 D282A)?
**A.** The Fold diff was 1 fold.

**Q.** What about the Fold diff (human C2 K415A) of the same binder?
**A.** The Fold diff was 1 fold.

**Q.** What about the Fold diff (human C2 I272A) of the same binder?
**A.** The Fold diff was 1 fold.
